Test results reported in paper PMC6322289, “The formation and accumulation of protein-networks by physical interactions in the rapid occlusion of laticifer cells in rubber tree undergoing successive mechanical wounding” (BMC Plant Biology, 2019).

Molecular target: T1, β-1,3-glucanase (Hevea brasiliensis (endogenous in latex …, UniProt P52407 37-356))
T1 construct: β-1,3-glucanase of the lutoids (B-serum) of Hevea brasiliensis latex; two bands of about 35.5 and 41 kDa, both recognised by anti-glucanase and identified as β-1,3-glucanase by MALDI TOF MS; The preparation holds two forms (35.5 and 41 kDa); source: purified from B-serum of rubber tree latex (0-65% (NH4)2SO4, CM Sepharose Fast Flow); also unpurified in B-serum
Assay: SPR; Biacore 3000, 25 °C; β-1,3-glucanase amine-coupled to a CM5 chip (5000 RU); analytes flowed in HBS-EP pH 7.4 at 30 μL/min; multi-cycle kinetics, 1:1 Langmuir fit; apparent constants
Details: both partners purified

T1 sequence (P52407 37-356): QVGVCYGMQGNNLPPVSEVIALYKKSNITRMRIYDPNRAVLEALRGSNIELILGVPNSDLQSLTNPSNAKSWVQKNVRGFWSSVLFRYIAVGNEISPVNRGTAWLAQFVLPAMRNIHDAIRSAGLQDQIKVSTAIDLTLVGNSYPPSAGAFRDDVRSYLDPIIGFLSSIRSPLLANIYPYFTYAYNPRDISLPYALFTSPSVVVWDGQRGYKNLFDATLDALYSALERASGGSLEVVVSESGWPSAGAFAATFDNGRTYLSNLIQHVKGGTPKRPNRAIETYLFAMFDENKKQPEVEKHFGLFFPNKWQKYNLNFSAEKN

Row | Kd [µM] | Binder
1 | 231 | pro-hevein (natural protein, UniProt P02877 18-204, looked up, source: purified from B-serum of rubber tree latex (Sephacryl S-200HR); also unpurified in B-serum) EQCGRQAGGKLCPNNLCCSQWGWCGSTDEYCSPDHNCQSNCKDSGEGVGGGSASNVLATYHLYNSQDHGWDLNAASAYCSTWDANKPYSWRSKYGWTAFCGPVGAHGQSSCGKCLSVTNTGTGAKTTVRIVDQCSNGGLDLDVNVFRQLDTDGKGYERGHITVNYQFVDCGDSFNPLFSVMKSSVIN
2 | 87.9 | EQCGRQAGGKLCPNNLCCSQWGWCGSTDEYCSPDHNCQSNCKD (natural protein, UniProt P02877 18-60, looked up, hevein, the N-terminal part split from pro-hevein, Hevea brasiliensis; runs at 10 kDa in Tricine-SDS-PAGE; source: purified from B-serum of rubber tree latex (85-95% (NH4)2SO4, Sephacryl S-200HR); also unpurified in B-serum) [hevein]
